Results as given in patent publication US20050266512.

Test system: native proaerolysin

trypsin
decrease in absorbance (erythrocyte lysis in response to channel formation by active aerolysin): The solid line represents native proaerolysin activated with trypsin.
